# Measurements reported in the RNAGym collection of RNA variant scans (doi:10.1073/pnas.2313332121).
# B1: TPR t1 (parent)
# chain: GACCAAUCUGCCCUCAGAGCUCGAGAACAUCUUCGGAUGCAGAGGAGGCAGGCUUCGGUGGCGCGAUAGCGCCAACGUCCUCAACCUCCAAUGCAUCCCACCACAUGAUGAUGCCUGAAGAGCCUUGGUUUUUUG
# Variants of: B1
# Assay: polymerase ribozyme fitness, log enrichment relative to wild type (log ratio); higher = more active; in vitro selection for triplet polymerase activity
# Method in brief: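 Genotype fitness is the logarithm of its enrichment divided by wild-type enrichment, using inverse-variance-weighted averages of replicates. That logarithm is base 2. Enrichment was measured by Illumina sequencing of input and output libraries from one triplicate in vitro selection round, with frozen incubation at −7 °C, on PCR-built, transcribed mutant libraries of each subunit of a heterodimeric triplet polymerase ribozyme, retaining genotypes with ≥10 input reads and ≥1 read per output.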
row,Variant,polymerase ribozyme fitness (log ratio)
1,U32G C70G C98G,-6.14
2,U32G C72U C102U G113A,-7.34
3,U32G C82U A121C,-6.01
4,U32G C97G A119G,-6.08
5,U32G C115A,-5.41
6,U32G G39A U106C,-4.98
7,U33A A37C,-4.7
8,U33A A46C G61A,-5.04
9,U33A A46U,-4.71
10,U33A A66G C123A,-6.2
11,U33A C72U,-4.34
12,U33A C79U C94A C104U G120A,-4.61
13,U33A C88G,-4.9
14,U33A G36U,-4.74
15,U33A G36U G69U C99G,-5.44
16,U33A G45A G63C,-5.54
17,U33A U59A G61U U106G,-5.96
18,U33A U87A,-4.12
19,U33C C64U,-3.44
20,U33C C79G A111U,-7.17
21,U33C C124A,-2.98
22,U33C G39U,-5.33
23,U33C G60A,-4.87
24,U33C G69U,-1.74

row,Variant,polymerase ribozyme fitness (log ratio)
1,U33C U132A,-4.81
2,U33G C64U U112G,-6.48
3,U33G C70U U78G,-6.53
4,U33G C72A C85G A90G G120C U129G,-7.02
5,U33G C76G C88A C115U,-6.6
6,U33G C104U,-5.5
7,U33G G35U G69U U78G A91C C114G G128C U132A G135A,-5.79
8,U33G G39C G110U,-6.35
9,U33G G48U G60A C97G G120A,-7.27
10,U33G G52C C56A G61A C79U A91G C123G U131G,-7.1
11,U33G G52C U78A C98A U112G U116G,-7.02
12,U33G G61A A121U G127U U133A,-3.67
13,U33G G61A C80G A91C U92A C101U C115G,-8.32
14,U33G G93A A100U C114U,-7.04
15,U33G U54G G58C A74G G120C,-5.75
16,U33G U59G G110A,-5.54
17,C34A A37U G69C G120A,-5.05
18,C34A A43U,-5.98
19,C34A A46G U54G,-2.69
20,C34A A46U A75G C102U A111G,-3.22
21,C34A A50G G113U G120C,-6.31
22,C34A A50U C53U A121C,-4.91
23,C34A A68G A100C C123U,-5.6
24,C34A A84G A121G,-2.74

row,Variant,polymerase ribozyme fitness (log ratio)
1,C34A A95U,-3.54
2,C34A A100G,-5.07
3,C34A A121U,-0.134
4,C34A C40A C49G G77A U112A C115G,-7.22
5,C34A C40U A41U C101A C114A G120A,-6.72
6,C34A C40U C85A,-5.11
7,C34A C49G C76G U96A C124U U131G U134C,-2.1
8,C34A C56A C104U,-2.11
9,C34A C56A G93A C97U,-4.7
10,C34A C56G G117A,-5.64
11,C34A C64U,-2.37
12,C34A C70A,-4.06
13,C34A C72A C102U,-2.07
14,C34A C72G G107U U109G A121G,-5.86
15,C34A C72U G110U,-6.56
16,C34A C72U U116G,-5.21
17,C34A C73A,-2.46
18,C34A C79G,-6.59
19,C34A C79U,-2.71
20,C34A C82A,-2.72
21,C34A C89A,-5.68
22,C34A C89U,-4.08
23,C34A C97G,-4.18
24,C34A C98U G122U,-2.46

row,Variant,polymerase ribozyme fitness (log ratio)
1,C34A C102U,-1.64
2,C34A C114G,-5.41
3,C34A C123G,-0.401
4,C34A C123U,-1.54
5,C34A G35A C86G U112C,-4.41
6,C34A G39U C73G C98A,-4.33
7,C34A G42A G61A G117C U131C,-7.25
8,C34A G45U,-4.49
9,C34A G52U C53U A90U U106A,-4.54
10,C34A G58A,-2.81
11,C34A G60C A100G,-5.76
12,C34A G60C U112G U130A U133A,-4.54
13,C34A G61A,-2.98
14,C34A G61U U112G C123A,-4.54
15,C34A G63C A100C C104A,-6.04
16,C34A G65U C82G A111G U116G,-6.99
17,C34A G69C A111G,-5.23
18,C34A G71A U78C C94U U125A,-5.82
19,C34A G71C U129C,-5.07
20,C34A G71U,-2.95
21,C34A G77U C98A,-2.63
22,C34A G113A,-4.03
23,C34A G113C,-5.75
24,C34A G117U,-6.2

row,Variant,polymerase ribozyme fitness (log ratio)
1,C34A G127C,-3.8
2,C34A U55A C88A,-3.93
3,C34A U55C G60A U129G,-4.44
4,C34A U78C C88U,-1.84
5,C34A U87A A90G,-2.87
6,C34A U109C,-6.24
7,C34A U112A,-1.81
8,C34G A43U G60C C82A A100U C114U U130C U132A U134C,-5.7
9,C34G A46U,-6.06
10,C34G A83C,-4.9
11,C34G C49U C97U C114G,-7.24
12,C34G C73A U116A A121U,-4.42
13,C34G C73U,-5.17
14,C34G C73U C104G U116C A121C G122U,-6.01
15,C34G C82U,-6.19
16,C34G C124A,-3.61
17,C34G C124U,-4.28
18,C34G G36A U96A C124U,-6.45
19,C34G G44A,-6.88
20,C34G G44U C62U G77A G110C,-6.64
21,C34G G47U U55G G61C G63C C80U,-7.69
22,C34G G63C,-6.66
23,C34G G107A,-7.98
24,C34G G117C C124A,-6.44

row,Variant,polymerase ribozyme fitness (log ratio)
1,C34G U38A G48A C53U A111U,-6
2,C34G U54G G69U,-5.25
3,C34G U67C A103G G107C U116C C123G,-7.28
4,C34G U112A,-4.47
5,C34U A41G C56U G63C C89A A95U C104G G110A,-5.19
6,C34U A50C C70G C79G C89A C102G C124U,-6.39
7,C34U A50U C73U C115A A119G,-4.5
8,C34U A74U,-4.36
9,C34U A84G C89G,-6.47
10,C34U A84U U131G,-5.95
11,C34U C49G C53G A75G C88A C104A U112A,-5.7
12,C34U C53G A66U C124A,-6.48
13,C34U C56A C114U,-4.57
14,C34U C56A G71C U112A,-6.49
15,C34U C62U,-5.32
16,C34U C70G,-5.34
17,C34U C70G C72U,-7.09
18,C34U C72A C123A,-5.4
19,C34U C72G,-2.99
20,C34U C72U A105G G120A,-6.01
21,C34U C79U U130C,-5.4
22,C34U C88U,-4.26
23,C34U C102U C124A,-0.815
24,C34U C115U,-5.45

row,Variant,polymerase ribozyme fitness (log ratio)
1,C34U C123U,-2.86
2,C34U G47A C72U U78A C115A,-6.19
3,C34U G48U,-4.63
4,C34U G57A G107A U109A U116G,-6.43
5,C34U G63C,-3.94
6,C34U G63C A100U A111C,-5.4
7,C34U G77A,-5.22
8,C34U G93A,-3.87
9,C34U G110A,-4.68
10,C34U G113A C115A U132A,-6.07
11,C34U G122A,-4.6
12,C34U U78A,-4.78
13,C34U U78C,-4.25
14,C34U U112A G122A,-5.94
15,G35A A66C G117U,-5.98
16,G35A A108U G120C,-5.76
17,G35A C49A G60U C86U C89A,-7.46
18,G35A C64U A103C G120A,-5.9
19,G35A C72G A105C U109G U116G A121G,-6.34
20,G35A C88U A121U,-1.91
21,G35A C94G C123G U129C,-5.78
22,G35A C99A C123A,-6.8
23,G35A C102U,-5.08
